Where no end group is shown, it is not given here. The star is where a group is joined. Biotin = O=C1N[C@H]2[C@H](CS[C@H]2CCCCC(=O)*)N1
How the values were obtained:
Type in all cases: binding
Settings in all cases: RBL-2H3 lysates, peptide on streptavidin beads
SHP-1 = target: T1, SHP-1 (Rattus norvegicus, UniProt P81718); assay: Cell lysate adsorption to peptides, anti-SHP-1 immunoblot
T1 construct: endogenous in cells; host or cells: RBL-2H3
Protocol: (§1) Assay for cell lysate adsorption to peptides. RBL-2H3 cells were lysed in NP-40 lysis buffer (1% NP-40, 10 mM Tris-HCl, 150 mM NaCl, 1 mM EDTA, 1 mM PMSF, 10 mM iodoacetamide, 10 mM NaF, 10 mM Na pyrophosphate, 0.4 mM Na vanadate, 10 μg/ml leupeptine, 10 μg/ml aprotinine). Samples were either used directly (whole cell lysates: WCL), or subjected to affinity purification using peptides bound to beads. Biotinylated peptides (5 μg) were coupled to 50 μl streptavidin-agarose bead slurry (Sigma) for 1 hour at 4° C., prior to bead saturation with D-biotin (1 mg/ml) for 1 hour at 4° C. After 3 washes in lysis buffer, samples were separated on SDS-PAGE and transferred to nitrocellulose.
(§2) RBL-2H3 and ^35S-labeled IIA.1.6 cells were lysed in NP-40 lysis buffer (1% NP-40, 10 mM Tris-HCl, 150 mM NaCl, 1 mM EDTA, 1 mM PMSF, 10 mM iodoacetamide, 10 mM NaF, 10 mM Na pyrophosphate, 0.4 mM Na vanadate, 10 μg/ml leupeptin, 10 μg/ml aprotinin). Samples were either used directly (whole cell lysates: WCL), or subjected to affinity purification using peptides bound to beads. Biotinylated peptides (5 μg) were coupled to 50 μl streptavidin-agarose slurry beads for 1 hour at 4° C., prior to bead saturation with D-biotin (1 mg/ml) for 1 hour at 4° C. After 3 washes in lysis buffer, samples were fractionated on 8% SDS-polyacrylamide gel electrophoresis (SDS-PAGE) under reducing condition and transferred to nitrocellulose.
(§3) Results are illustrated by FIG. 15 showing the in vitro interaction between NKG2A ITIMs and SHP-1, SHP-2 and SHIP phosphatases. In FIG. 15, RBL-2H3 cell lysates (15A) or ^35S-labeled ILA.1.6 cell lysates (15B) were absorbed with indicated biotinylated peptides coupled to streptavidin-beads. Affinity-bound proteins (30×10^6 cells/sample) or whole cell lysates (WCL, 5×10^6 cells/sample) were resolved on 8% SDS-PAGE under reducing conditions prior to autoradiography (15B), or immunoblotting using anti-SHIP antiserum, anti-SHP-2 mAb and anti-SHP-1 mAbs (15A).

SHP-2 = target: T2, SHP-2 (Rattus norvegicus, UniProt P41499); assay: Cell lysate adsorption to peptides, anti-SHP-2 immunoblot
T2 construct: RBL-2H3 cells were lysed in NP-40 lysis buffer; endogenous in cells; host or cells: RBL-2H3
T2 sequence (P41499 1-593): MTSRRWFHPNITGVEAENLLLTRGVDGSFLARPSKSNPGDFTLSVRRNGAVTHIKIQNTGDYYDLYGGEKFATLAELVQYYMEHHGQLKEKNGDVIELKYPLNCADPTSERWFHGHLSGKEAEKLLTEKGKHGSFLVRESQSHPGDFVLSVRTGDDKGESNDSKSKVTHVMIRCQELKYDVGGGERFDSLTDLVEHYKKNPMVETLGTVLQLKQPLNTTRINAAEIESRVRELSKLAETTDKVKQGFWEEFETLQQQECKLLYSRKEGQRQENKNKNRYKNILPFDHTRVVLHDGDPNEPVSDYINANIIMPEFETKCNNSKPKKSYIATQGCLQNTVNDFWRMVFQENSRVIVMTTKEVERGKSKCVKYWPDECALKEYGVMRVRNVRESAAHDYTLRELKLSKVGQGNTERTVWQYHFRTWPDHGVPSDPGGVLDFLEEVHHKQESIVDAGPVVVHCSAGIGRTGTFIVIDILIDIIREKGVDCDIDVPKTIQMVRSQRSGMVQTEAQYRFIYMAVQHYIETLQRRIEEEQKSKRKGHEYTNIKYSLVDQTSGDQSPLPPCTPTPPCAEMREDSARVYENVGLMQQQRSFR
Protocol: as §1, §2, §3

SHIP = target: T3, SHIP (Rattus norvegicus, UniProt P97573); assay: Cell lysate adsorption to peptides, anti-SHIP immunoblot
T3 construct: RBL-2H3 cells were lysed in NP-40 lysis buffer; endogenous in cells; host or cells: RBL-2H3
T3 sequence (P97573 1-1190): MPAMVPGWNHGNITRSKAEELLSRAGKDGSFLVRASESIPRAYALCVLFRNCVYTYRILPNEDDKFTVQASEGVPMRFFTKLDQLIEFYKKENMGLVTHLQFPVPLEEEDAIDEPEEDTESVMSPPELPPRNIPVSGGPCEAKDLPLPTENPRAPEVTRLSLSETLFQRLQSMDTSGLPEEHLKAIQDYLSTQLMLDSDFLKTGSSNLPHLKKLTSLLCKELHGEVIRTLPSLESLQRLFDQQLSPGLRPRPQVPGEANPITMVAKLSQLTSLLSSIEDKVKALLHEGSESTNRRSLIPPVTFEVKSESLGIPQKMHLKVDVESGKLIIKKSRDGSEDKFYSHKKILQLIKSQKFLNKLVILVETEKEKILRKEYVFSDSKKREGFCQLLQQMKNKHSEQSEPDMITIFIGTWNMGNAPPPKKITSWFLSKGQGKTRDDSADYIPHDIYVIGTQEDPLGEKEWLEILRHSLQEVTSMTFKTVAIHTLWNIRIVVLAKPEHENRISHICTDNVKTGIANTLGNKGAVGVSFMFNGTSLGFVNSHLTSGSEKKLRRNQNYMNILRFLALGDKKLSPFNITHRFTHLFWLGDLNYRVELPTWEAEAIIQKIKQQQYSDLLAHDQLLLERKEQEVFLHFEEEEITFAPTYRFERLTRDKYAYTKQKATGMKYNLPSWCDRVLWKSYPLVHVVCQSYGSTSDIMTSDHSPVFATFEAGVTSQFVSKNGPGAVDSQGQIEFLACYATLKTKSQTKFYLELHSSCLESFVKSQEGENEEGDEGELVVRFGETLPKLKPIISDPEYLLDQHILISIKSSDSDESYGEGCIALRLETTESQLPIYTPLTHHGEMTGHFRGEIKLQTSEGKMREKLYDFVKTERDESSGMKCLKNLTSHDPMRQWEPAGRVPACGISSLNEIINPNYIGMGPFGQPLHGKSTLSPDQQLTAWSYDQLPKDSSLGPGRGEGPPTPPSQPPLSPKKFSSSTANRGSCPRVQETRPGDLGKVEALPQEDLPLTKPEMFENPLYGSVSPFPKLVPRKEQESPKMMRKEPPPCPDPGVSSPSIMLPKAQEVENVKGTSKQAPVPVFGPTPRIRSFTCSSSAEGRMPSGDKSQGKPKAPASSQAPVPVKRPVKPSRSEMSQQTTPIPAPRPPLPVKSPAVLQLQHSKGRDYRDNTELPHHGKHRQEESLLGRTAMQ
Protocol: as §1, §2, §3

T1 sequence (P81718 whole entry): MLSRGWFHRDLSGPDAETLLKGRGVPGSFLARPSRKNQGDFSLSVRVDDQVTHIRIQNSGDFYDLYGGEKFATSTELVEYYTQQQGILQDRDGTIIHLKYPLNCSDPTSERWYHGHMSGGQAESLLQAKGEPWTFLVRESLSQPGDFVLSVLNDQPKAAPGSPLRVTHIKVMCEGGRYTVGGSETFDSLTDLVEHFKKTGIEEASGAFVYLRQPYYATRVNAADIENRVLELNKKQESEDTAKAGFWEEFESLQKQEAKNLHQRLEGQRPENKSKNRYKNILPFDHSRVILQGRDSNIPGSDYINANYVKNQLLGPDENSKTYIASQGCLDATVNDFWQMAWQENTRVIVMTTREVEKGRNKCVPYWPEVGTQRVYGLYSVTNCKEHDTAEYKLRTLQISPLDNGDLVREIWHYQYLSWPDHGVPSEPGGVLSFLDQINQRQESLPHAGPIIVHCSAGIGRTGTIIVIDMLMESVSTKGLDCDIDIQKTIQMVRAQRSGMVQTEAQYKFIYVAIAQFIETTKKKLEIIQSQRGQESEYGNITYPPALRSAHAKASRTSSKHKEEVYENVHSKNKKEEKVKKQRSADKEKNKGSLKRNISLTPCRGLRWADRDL

## DEQDPQEATY303AQLN (DEQDPQEATYAQLN) [p58.2.1-V301A, point mutant of KIR N-terminal ITIM peptide]
SHP-1
  binding of SHP-1 from cell lysates: abolishes the binding
SHP-2
  binding of SHP-2 from cell lysates: abolishes the binding

## KTEAENTATY262SLLK (KTEAENTATYSLLK) [FcγRIIB 1-I260A, point mutant of FcγRIIB ITIM peptide]
SHP-1
  binding of SHP-1 from cell lysates: abolishes the binding
SHP-2
  binding of SHP-2 from cell lysates: abolishes the binding
SHIP
  binding of SHIP from cell lysates: not affected

## KTEAENTITY262SLLK [FcγRIIB ITIM] (Biotin-KTEAENTITYSLLK) [murine FcγRIIB1/B2 ITIM peptide]
SHP-1
  binding of SHP-1 from cell lysates: recruit
SHP-2
  binding of SHP-2 from cell lysates: recruit
SHIP
  binding of SHIP from cell lysates: recruit
SHIP; listed as FcγRIIB phosphorylated ITIM peptides
  binding of SHIP from cell lysates: associate

## KTEAENTITY262SLLK [nonphosphorylated peptides corresponding to FcγRIIB]
SHP-1
  binding of SHP-1 from cell lysates: No association
SHP-2
  binding of SHP-2 from cell lysates: No association
SHIP
  binding of SHIP from cell lysates: No association
